Laboratory results reported in patent US20070218061A1 (VASGENE THERAPEUTICS, published 2007).
Read-outs that look alike come from different tables or passages of the source.

Legend:
[1] = biological target: HeV and NiV F and G envelope glycoproteins (on effector cells); test: cell-based or functional assay
[2] = biological target: HeV and NiV F and G envelope glycoproteins (on effector cells); test: cell-based or functional assay; remark: listed apart in the source
B4ECv3 = biological target: T1, B4ECv3 (human, UniProt P54760 16-537); test: biochemical assays; B4ECv3 on Ni-NTA agarose, 50 nM B2-AP, PNPP colorimetry
T1 construct: also called B4ECv3 protein
T1 sequence: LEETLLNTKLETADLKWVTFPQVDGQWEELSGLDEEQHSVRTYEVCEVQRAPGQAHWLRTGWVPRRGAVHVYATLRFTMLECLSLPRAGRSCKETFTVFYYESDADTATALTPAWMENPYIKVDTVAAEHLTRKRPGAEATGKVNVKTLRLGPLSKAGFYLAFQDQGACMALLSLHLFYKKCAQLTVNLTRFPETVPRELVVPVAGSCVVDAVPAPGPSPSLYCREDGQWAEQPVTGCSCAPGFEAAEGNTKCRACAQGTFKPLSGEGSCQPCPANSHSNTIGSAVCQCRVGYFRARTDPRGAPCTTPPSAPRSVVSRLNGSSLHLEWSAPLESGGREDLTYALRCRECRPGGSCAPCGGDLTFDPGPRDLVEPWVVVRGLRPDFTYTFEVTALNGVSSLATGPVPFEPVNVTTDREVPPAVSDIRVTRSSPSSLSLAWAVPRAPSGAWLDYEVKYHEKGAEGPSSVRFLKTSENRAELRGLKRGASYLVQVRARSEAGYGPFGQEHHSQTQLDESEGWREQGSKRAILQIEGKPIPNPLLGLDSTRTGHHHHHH

Bovine Serum Albumin (from UniProt P02769 25-607)
% fusion (cell fusion assay), 0.1 µg/ml inhibitor [1]: 112% | % fusion (cell fusion assay), 1.0 µg/ml inhibitor [1]: 112% | % fusion (cell fusion assay), 10 µg/ml inhibitor [1]: 124% | % fusion (cell fusion reporter gene assay, beta-Gal), 10 µg/ml protein [1]: 126%

human EphrinB2EC-Human serum albumin fusion protein (from UniProt P52799 28-229)
% fusion (cell fusion assay), 0.1 µg/ml inhibitor [1]: 85.3% | % fusion (cell fusion assay), 1.0 µg/ml inhibitor [1]: 115% | % fusion (cell fusion assay), 10 µg/ml inhibitor [1]: 64% | % fusion (cell fusion reporter gene assay, beta-Gal), 10 µg/ml protein [1]: 54.8%

Murine EphrinB2-Ec-Fc (from UniProt P52800 29-232) (Fc fusion)
% fusion (cell fusion assay), 0.1 µg/ml inhibitor [1]: 70.7% | % fusion (cell fusion assay), 1.0 µg/ml inhibitor [1]: 1.87% | % fusion (cell fusion assay), 10 µg/ml inhibitor [1]: 2.93% | % fusion (cell fusion reporter gene assay, beta-Gal), 10 µg/ml protein [1]: 8.33%

Inactivated Human EphrinB2-Ec (from UniProt P52799 28-225) (ligand)
% fusion (cell fusion assay), 0.1 µg/ml inhibitor [1]: 103% | % fusion (cell fusion assay), 1.0 µg/ml inhibitor [1]: 104% | % fusion (cell fusion assay), 10 µg/ml inhibitor [1]: 77.3% | % fusion (cell fusion reporter gene assay, beta-Gal), 10 µg/ml protein [1]: 83.3%

B1: Murine EphrinB1-EC-Fc (Fc fusion)
chain: ATPLAKNLEPVSWSSLNPKFLSGKGLVIYPKIGDKLDIICPRAEAGRPYEYYKLYLVRPEQAAACSTVLDPNVLVTCNKPHQEIRFTIKFQEFSPNYMGLEFKKYHDYYITSTSNGSLEGLENREGGVCRTRTMKIVMKVGQDPNAVTPEQLTTSRPSKESDNTVKTATQAPGRGSQGDSDGKHETVNQEEKSGPGAGGGGSGDSDSFFNSK
% fusion (cell fusion assay), 0.1 µg/ml inhibitor [2]: 109% | % fusion (cell fusion assay), 1.0 µg/ml inhibitor [2]: 133% | % fusion (cell fusion assay), 10 µg/ml inhibitor [2]: 147% | % fusion (cell fusion reporter gene assay, beta-Gal), 10 µg/ml protein [2]: 140%

B2: EphrinB2EC-AP from pAPTag2 (ligand)
chain: IVLEPIYWNSSNSKFLPGQGLVLYPQIGDKLDIICPKVDSKTVGQYEYYKVYMVDKDQADRCTIKKENTPLLNCAKPDQDIKFTIKFQEFSPNLWGLEFQKNKDYYIISTSNGSLEGLDNQEGGVCQTRAMKILMKVGQDASSAGSTRNKDPTRRPELEAGTNGRSSTTSPFVKPNPGSSTDGNSAGHSGNNILGSEGSSGIIPVEEENPDFWNREAAEALGAAKKLQPAQTAAKNLIIFLGDGMGVSTVTAARILKGQKKDKLGPEIPLAMDRFPYVALSKTYNVDKHVPDSGATATAYLCGVKGNFQTIGLSAAARFNQCNTTRGNEVISVMNRAKKAGKSVGVVTTTRVQHASPAGTYAHTVNRNWYSDADVPASARQEGCQDIATQLISNMDIDVILGGGRKYMFPMGTPDPEYPDDYSQGGTRLDGKNLVQEWLAKRQGARYVWNRTELMQASLDPSVTHLMGLFEPGDMKYEIHRDSTLDPSLMEMTEAALRLLSRNPRGFFLFVEGGRIDHGHHESRAYRALTETIMFDDAIERAGQLTSEEDTLSLVTADHSHVFSFGGYPLRGSSIFGLAPGKARDRKAYTVLLYGNGPGYVLKDGARPDVTESESGSPEYRQQSAVPLDEETHAGEDVAVFARGPQAHLVHGVQEQTFIAHVMAFAACLEPYTACDLAPPAGTTDAAHPG
notes: also called B2-AP; B2ECAP reagent
binding result (B4ECv3): binds

B3: Murine EphrinA2-EC-Fc (Fc fusion)
chain: RNEDPARANADRYAVYWNRSNPRFQVSAVGDGGGYTVEVSINDYLDIYCPHYGAPLPPAERMERYILYMVNGEGHASCDHRQRGFKRWECNRPAAPGGPLKFSEKFQLFTPFSLGFEFRPGHEYYYISATPPNLVDRPCLRLKVYVRPTNETLYEAPEPIFTSN
% fusion (cell fusion assay), 0.1 µg/ml inhibitor [2]: 81.3% | % fusion (cell fusion assay), 1.0 µg/ml inhibitor [2]: 104% | % fusion (cell fusion assay), 10 µg/ml inhibitor [2]: 112% | % fusion (cell fusion reporter gene assay, beta-Gal), 10 µg/ml protein [2]: 117%
